In US20220144956A1 (Xencor, published 2022):

Tests used:
[1] = biological target: T1, human CD5 on human PBMCs / T cells (human, UniProt P06127 25-495); assay: flow cytometry on unstimulated human PBMCs, anti-human Fc Alexa647 secondary
T1 construct: whole, on cells
T1 sequence (looked up): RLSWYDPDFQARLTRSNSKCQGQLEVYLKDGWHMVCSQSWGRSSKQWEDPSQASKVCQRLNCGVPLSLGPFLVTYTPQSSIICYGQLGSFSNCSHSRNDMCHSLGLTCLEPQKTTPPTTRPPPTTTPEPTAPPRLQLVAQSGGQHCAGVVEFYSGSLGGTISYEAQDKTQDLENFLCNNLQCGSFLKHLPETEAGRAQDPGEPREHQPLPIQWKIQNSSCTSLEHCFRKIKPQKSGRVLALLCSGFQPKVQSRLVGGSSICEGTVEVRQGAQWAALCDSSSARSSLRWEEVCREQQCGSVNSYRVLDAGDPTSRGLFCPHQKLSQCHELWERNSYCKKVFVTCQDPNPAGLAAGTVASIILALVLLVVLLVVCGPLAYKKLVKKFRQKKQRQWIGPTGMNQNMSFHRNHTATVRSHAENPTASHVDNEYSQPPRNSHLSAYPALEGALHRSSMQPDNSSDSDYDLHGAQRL
Method: Next, cell binding of the bispecific antibodies were investigated. Unstimulated PBMCs were incubated with the indicated dose of bispecific antibodies for 1 hour on ice and washed. Next, the PBMCs were stained with goat anti-human Fc secondary antibody conjugated to Alexa647 (to assess binding of the bispecific antibodies) and antibodies against cell surface antigens (to define T cell populations) for 40 minutes on ice. Finally, the cells were analyzed by flow cytometry.

[2] = biological target: T2, His-tagged human CD5 antigen (human, UniProt P06127 25-372, limits assumed); assay: worded comparison of affinity (Octet KD values in FIG. 68)
T2 construct: not shown: His tag
T2 sequence (looked up): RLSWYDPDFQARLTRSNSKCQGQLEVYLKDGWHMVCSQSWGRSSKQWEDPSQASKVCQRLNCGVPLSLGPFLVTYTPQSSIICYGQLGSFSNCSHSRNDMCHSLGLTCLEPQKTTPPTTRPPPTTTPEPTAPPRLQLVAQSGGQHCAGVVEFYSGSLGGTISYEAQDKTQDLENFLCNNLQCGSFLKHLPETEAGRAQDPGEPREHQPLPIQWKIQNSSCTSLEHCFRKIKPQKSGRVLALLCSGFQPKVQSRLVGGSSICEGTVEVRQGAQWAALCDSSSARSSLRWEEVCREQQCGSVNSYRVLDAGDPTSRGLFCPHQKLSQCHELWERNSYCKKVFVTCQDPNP
Source text: In particular, His-tagged human and cynomolgus CD5 antigen were captured using HIS1K sensors and dipped into multiple concentrations of the bispecific antibodies.

[3] = biological target: T3, human TGFßRII on human PBMCs / T cells (human, UniProt P37173 23-567); assay: flow cytometry, Alexa647-labeled mAb on anti-CD3 activated human PBMCs
T3 construct: whole, on cells; also called cell-surface TGFßRII; TGFßR2
T3 sequence (P37173 23-567): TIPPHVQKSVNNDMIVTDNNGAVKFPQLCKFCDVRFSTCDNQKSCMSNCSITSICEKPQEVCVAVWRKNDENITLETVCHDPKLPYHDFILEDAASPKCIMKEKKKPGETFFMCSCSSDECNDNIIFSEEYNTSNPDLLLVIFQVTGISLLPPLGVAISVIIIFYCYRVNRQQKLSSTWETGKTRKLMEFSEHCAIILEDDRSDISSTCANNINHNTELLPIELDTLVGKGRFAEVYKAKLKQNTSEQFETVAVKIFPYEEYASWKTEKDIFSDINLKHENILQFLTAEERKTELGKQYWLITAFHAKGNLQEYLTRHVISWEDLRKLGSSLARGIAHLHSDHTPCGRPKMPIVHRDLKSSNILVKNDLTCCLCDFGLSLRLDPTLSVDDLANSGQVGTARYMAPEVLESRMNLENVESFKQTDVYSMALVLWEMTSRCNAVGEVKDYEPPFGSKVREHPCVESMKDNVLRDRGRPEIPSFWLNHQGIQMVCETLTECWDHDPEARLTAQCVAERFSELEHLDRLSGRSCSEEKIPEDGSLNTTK

[4] = biological target: T4, His-tagged cynomolgus CD5 antigen (cynomolgus monkey); assay: method not stated; the filing prints 'TGFßRII' but the sentence is about restoring the CD5 affinity of Cd5-B VH variants, so the target is taken as CD5
T4 construct: also called cyno CD5

[5] = biological target: T2, His-tagged human CD5 antigen; assay: as above

B1: XENP35399 (bispecific antibody, human IgG1, kappa)
heavy: EVQLVESGGGVVQPGRSLRLSCTFSGFSLSTSGMGVGWIRQAPGKGLEWVAHIWWDDDVYYNPSLKSRLTITKDASTDTVYMELSSLRSEDTAVYYCVRRRATGTGFDYWGQGTLVTVSSASTKGPSVFPLAPSSKSTSGGTAALGCLVKDYFPEPVTVSWNSGALTSGVHTFPAVLQSSGLYSLSSVVTVPSSSLGTQTYICNVNHKPSDTKVDKKVEPKSCDKTHTCPPCPAPPVAGPSVFLFPPKPKDTLMISRTPEVTCVVVDVKHEDPEVKFNWYVDGVEVHNAKTKPREEEYNSTYRVVSVLTVLHQDWLNGKEYKCKVSNKALPAPIEKTISKAKGQPREPQVYTLPPSREEMTKNQVSLTCDVSGFYPSDIAVEWESDGQPENNYKTTPPVLDSDGSFFLYSKLTVDKSRWEQGDVFSCSVMHEALHNHYTQKSLSLSPGK
scFv-Fc: QLQVQESGPGLVKPSETLSLTCTVSGGSISNSYFSWGWIRQPPGKGLEWIGSFYYGEKTYYNPSLKSRATISIDTSKSQFSLKLSSVTAADTAVYYCPRGPTVIRGVIDSWGQGTLVTVSSGKPGSGKPGSGKPGSGKPGSEIVLTQSPATLSLSPGERATLSCRASQSVRSYLAWYQQKPGQAPRLLIYDASNRATGIPARFSGSGSGTDFTLTISSLEPEDFAVYYCQQRSNWPPTFGQGTKVEIKEPKSSDKTHTCPPCPAPPVAGPSVFLFPPKPKDTLMISRTPEVTCVVVDVKHEDPEVKFNWYVDGVEVHNAKTKPREEQYNSTYRVVSVLTVLHQDWLNGKEYKCKVSNKALPAPIEKTISKAKGQPREPQVYTLPPSREQMTKNQVKLTCLVKGFYPSDIAVEWESNGQPENNYKTTPPVLDSDGSFFLYSKLTVDKSRWQQGNVFSCSVMHEALHNHYTQKSLSLSPGK
light: NIVMTQSPSSLSASVGDRVTITCQASQDVGTAVAWYQQKPDQSPKLLIYWTSTRHTGVPDRFTGSGSGTDFTLTISSLQPEDIATYFCHQYNSYNTFGSGTKLEIKRTVAAPSVFIFPPSDEQLKSGTASVVCLLNNFYPREAKVQWKVDNALQSGNSQESVTEQDSKDSTYSLSSTLTLSKADYEKHKVYACEVTHQGLSSPVTKSFNRGEC
notes: also called prototype anti-TGFßRII×anti-CD5 bsAb having CD5-targeting arm based on clone 5D7; αTGFßRII×αCD5
Does B1 bind [1]?
Result: binds

B2: XENP37385 (bispecific antibody, human IgG1, kappa)
heavy: EVQLKESGAELVRPGGSVKISCKGSGYTFTNFAIHWVKQSHIKTLEWIGLISTSSGDVSYNQKFKDKATMTVDKSSSTAYMELARLTSEDSAIYYCARHYGANNYFDYWGQGTLVTVSSASTKGPSVFPLAPSSKSTSGGTAALGCLVKDYFPEPVTVSWNSGALTSGVHTFPAVLQSSGLYSLSSVVTVPSSSLGTQTYICNVNHKPSDTKVDKKVEPKSCDKTHTCPPCPAPPVAGPSVFLFPPKPKDTLMISRTPEVTCVVVDVKHEDPEVKFNWYVDGVEVHNAKTKPREEEYNSTYRVVSVLTVLHQDWLNGKEYKCKVSNKALPAPIEKTISKAKGQPREPQVYTLPPSREEMTKNQVSLTCDVSGFYPSDIAVEWESDGQPENNYKTTPPVLDSDGSFFLYSKLTVDKSRWEQGDVFSCSVMHEALHNHYTQKSLSLSPGK
scFv-Fc: QLQVQESGPGLVKPSETLSLTCTVSGGSISNSYFSWGWIRQPPGKGLEWIGSFYYGEKTYYNPSLKSRATISIDTSKSQFSLKLSSVTAADTAVYYCPRGPTVIRGVIDSWGQGTLVTVSSGKPGSGKPGSGKPGSGKPGSEIVLTQSPATLSLSPGERATLSCRASQSVRSYLAWYQQKPGQAPRLLIYDASNRATGIPARFSGSGSGTDFTLTISSLEPEDFAVYYCQQRSNWPPTFGQGTKVEIKEPKSSDKTHTCPPCPAPPVAGPSVFLFPPKPKDTLMISRTPEVTCVVVDVKHEDPEVKFNWYVDGVEVHNAKTKPREEQYNSTYRVVSVLTVLHQDWLNGKEYKCKVSNKALPAPIEKTISKAKGQPREPQVYTLPPSREQMTKNQVKLTCLVKGFYPSDIAVEWESNGQPENNYKTTPPVLDSDGSFFLYSKLTVDKSRWQQGNVFSCSVMHEALHNHYTQKSLSLSPGK
light: EIVLTQSPTIMSASPGEQVTMTCRTNSSVSSSYLHWYQQKSGASPKLWIYGTSNLASGVPTRFSGSGSGTSYSLTISSVEAGDAATYFCQQYSGYPLTFGGGTKVEIKRTVAAPSVFIFPPSDEQLKSGTASVVCLLNNFYPREAKVQWKVDNALQSGNSQESVTEQDSKDSTYSLSSTLTLSKADYEKHKVYACEVTHQGLSSPVTKSFNRGEC
Does B2 bind [2]?
Result: binds

B3: XENP37388 (bispecific antibody, human IgG1, kappa)
heavy: QVTLKESGAELVRPGASVKLSCKASGYSFTSYWMNWVKQRPGQGLEWIGMIHPSDSETRLNQKFKDKATLTVDKSSSTAYMQLSSPTSEDSAVYYCARWGDHDDAMDFWGQGTMVTVSSASTKGPSVFPLAPSSKSTSGGTAALGCLVKDYFPEPVTVSWNSGALTSGVHTFPAVLQSSGLYSLSSVVTVPSSSLGTQTYICNVNHKPSDTKVDKKVEPKSCDKTHTCPPCPAPPVAGPSVFLFPPKPKDTLMISRTPEVTCVVVDVKHEDPEVKFNWYVDGVEVHNAKTKPREEEYNSTYRVVSVLTVLHQDWLNGKEYKCKVSNKALPAPIEKTISKAKGQPREPQVYTLPPSREEMTKNQVSLTCDVSGFYPSDIAVEWESDGQPENNYKTTPPVLDSDGSFFLYSKLTVDKSRWEQGDVFSCSVMHEALHNHYTQKSLSLSPGK
scFv-Fc: QLQVQESGPGLVKPSETLSLTCTVSGGSISNSYFSWGWIRQPPGKGLEWIGSFYYGEKTYYNPSLKSRATISIDTSKSQFSLKLSSVTAADTAVYYCPRGPTVIRGVIDSWGQGTLVTVSSGKPGSGKPGSGKPGSGKPGSEIVLTQSPATLSLSPGERATLSCRASQSVRSYLAWYQQKPGQAPRLLIYDASNRATGIPARFSGSGSGTDFTLTISSLEPEDFAVYYCQQRSNWPPTFGQGTKVEIKEPKSSDKTHTCPPCPAPPVAGPSVFLFPPKPKDTLMISRTPEVTCVVVDVKHEDPEVKFNWYVDGVEVHNAKTKPREEQYNSTYRVVSVLTVLHQDWLNGKEYKCKVSNKALPAPIEKTISKAKGQPREPQVYTLPPSREQMTKNQVKLTCLVKGFYPSDIAVEWESNGQPENNYKTTPPVLDSDGSFFLYSKLTVDKSRWQQGNVFSCSVMHEALHNHYTQKSLSLSPGK
light: DIVLTQSPASLSASVGESVTITCRPSENIYGYFAWYQQRQGKSPQLLVYNAKTLAEGVPSRFSGSGSGTHFSLKINSLQPEDFGTYYCQHHYGTPFTFGPGTKVDIKRTVAAPSVFIFPPSDEQLKSGTASVVCLLNNFYPREAKVQWKVDNALQSGNSQESVTEQDSKDSTYSLSSTLTLSKADYEKHKVYACEVTHQGLSSPVTKSFNRGEC
notes: also called anti-TGFßRII×anti-CD5 bsAb based on Cd5-B (by the order of the sentence)
Does B3 bind [1]?
Result: binds

B4: XENP28297 (antibody, human IgG1, kappa, V domains shown)
VH: QLQVQESGPGLVKPSETLSLTCTVSGGSISNSYFSWGWIRQPPGKGLEWIGSFYYGEKTYYNPSLKSRATISIDTSKSQFSLKLSSVTAADTAVYYCPRGPTVIRGVIDSWGQGTLVTVSS
VL: EIVLTQSPATLSLSPGERATLSCRASQSVRSYLAWYQQKPGQAPRLLIYDASNRATGIPARFSGSGSGTDFTLTISSLEPEDFAVYYCQQRSNWPPTFGQGTKVEIKR
modifications: The antibody was labeled with Alexa647 in the cell-binding assay. The dye position is not stated.
notes: also called bivalent anti-TGFßRII mAb based on TBRII-A; copies: 2 + 2
Does B4 bind [3]?
Result: binds

B5: XENP33038 (antibody, human IgG1, kappa, V domains shown)
VH: EVQLVESGGGLVKPGGSLRLSCAASGFTFSSFSMNWVRQAPGKGLEWVSSISSSSSYIYYTDSVKGRFTISRDNAKNSLYLQMNSLRAEDTAVYYCARGYWGFDYWGQGTLVTVSS
VL: DIQMTQSPSSLSASVGDRVTITCRASQGIRNDLGWYQQKPGKAPKRLIYAASSLQSGVPSRFSGSASGTEFTLTISSLQPEDFATYYCLQHNSNPLTFGGGTKVEIKR
modifications: Antibody labeled with Alexa647 in the assay; attachment sites not stated.
notes: labeled with Alexa647; also called illustrative anti-TGFßRII mAb XENP33038; copies: 2 + 2
Does B5 bind [3]?
Result: binds

B6: Cd5-B H2L1 (further humanized variant of Cd5-B) (antibody, V domains shown)
VH: QVQLVQSGAEVKKPGASVKVSCKASGYSFTSYWMNWVRQAPGQGLEWMGMIHPSDSETRYNQKFQGRVTMTVDKSTSTAYMELSSLRSEDTAVYYCARWGDHDDAMDFWGQGTMVTVSS
VL: DIVLTQSPSSLSASVGDRVTITCRPSENIYGYFAWYQQKPGKSPKLLVYNAKTLAEGVPSRFSGSGSGTDFTLTISSLQPEDFATYYCQHHYGTPFTFGPGTKVEIK
B6 was tested. Which Kd [4] did it give?
The Kd was 0.3 nM.

And the Kd [5]?
The Kd was 2 nM.

B7: Cd5-B H1.23_L1 (further humanized variant of Cd5-B) (antibody, V domains shown)
VH: EVQLVQSGAEVKKPGESLKISCKASGYSFTSYWMNWVRQMPGKGLEWMGMIYPSDSETRYNQSFQGQVTISVDKSISTAYLQWSSLKASDTAMYYCARWGDHDDAMDFWGQGTMVTVSS
VL: DIVLTQSPSSLSASVGDRVTITCRPSENIYGYFAWYQQKPGKSPKLLVYNAKTLAEGVPSRFSGSGSGTDFTLTISSLQPEDFATYYCQHHYGTPFTFGPGTKVEIK
For B7, which Kd [4] is on record?
Its Kd is 3 nM.

What about the Kd [5] of the same binder?
Its Kd is 4 nM.

B8: Cd5-B H1.36_L1 (further humanized variant of Cd5-B) (antibody, V domains shown)
VH: EVQLVQSGAEVKKPGESLKISCKASGYSFTSYWMNWVRQMPGKGLEWMGMIHPSDSETRYNQKFQGQVTISVDKSISTAYLQWSSLKASDTAMYYCARWGDHDDAMDFWGQGTMVTVSS
VL: DIVLTQSPSSLSASVGDRVTITCRPSENIYGYFAWYQQKPGKSPKLLVYNAKTLAEGVPSRFSGSGSGTDFTLTISSLQPEDFATYYCQHHYGTPFTFGPGTKVEIK
For B8, which Kd [4] is on record?
Its Kd is 2 nM.

What about the Kd [5] of the same binder?
The Kd was 4 nM.
